Measurements taken from patent publication US11371056B2, “HPPD variants and methods of use” (BASF Agricultural Solutions Seed US LLC, priority 2017, dated 2022).
Numbering of substitutions follows the chain as printed.

B1: SEQ ID NO:3 (protein)
chain: MADLYENPMGLMGFEFIEFASPTPGTLEPIFEIMGFTKVATHRSKNVHLYRQGEINLILNNEPNSIASYFAAEHGPSVCGMAFRVKDSQKAYNRALELGAQPIHIDTGPMELNLPAIKGIGGAPLYLIDRFGEGSSIYDIDFVYLEGVERNPVGAGLKVIDHLTHNVYRGRMVYWANFYEKLFNFREARYFDIKGEYTGLTSKAMSAPDGMIRIPLNEESSKGAGQIEEFLMQFNGEGIQHVAFLTDDLVKTWDALKKIGMRFMTAPGDEYYEMLEGRLPDHGEPVDQLQARGILLDGSSVEGDKRLLLQIFSEKLMGPVFFEFIQRKGDDGFGPDSFKVLFESIERDQVRRGVLTAD
modifications: mutant HPPD polypeptide
B2: SEQ ID NO:8 (protein)
chain: B1 chain with M264L, K315Q
modifications: mutant HPPD polypeptide
B3: SEQ ID NO:18 (protein)
chain: B1 chain with S344Q, I345M
modifications: mutant HPPD polypeptide
B4: SEQ ID NO:20 (protein)
chain: B1 chain with K315R, S344Q, I345M
modifications: mutant HPPD polypeptide
B5: SEQ ID NO:22 (protein)
chain: B1 chain with D336H
modifications: mutant HPPD polypeptide
B6: SEQ ID NO:21 (protein)
chain: B1 chain with K315T, S344Q, I345M
modifications: mutant HPPD polypeptide
B7: SEQ ID NO:23 (protein)
chain: B1 chain with K315Q, D336H
modifications: mutant HPPD polypeptide
B8: SEQ ID NO:25 (protein)
chain: B1 chain with K315T, D336H
modifications: mutant HPPD polypeptide
B9: SEQ ID NO:9 (protein)
chain: B1 chain with M264L, K315T
modifications: mutant HPPD polypeptide
B10: SEQ ID NO:13 (protein)
chain: B1 chain with K315T, S344Q
modifications: mutant HPPD polypeptide
B11: SEQ ID NO:10 (protein)
chain: B1 chain with S344Q
modifications: mutant HPPD polypeptide
B12: SEQ ID NO:27 (protein)
chain: B1 chain with M264L, K315R, D336H
modifications: mutant HPPD polypeptide
B13: SEQ ID NO:11 (protein)
chain: B1 chain with K315Q, S344Q
modifications: mutant HPPD polypeptide
B14: SEQ ID NO:17 (protein)
chain: B1 chain with K315T, I345M
modifications: mutant HPPD polypeptide
B15: SEQ ID NO:7 (protein)
chain: B1 chain with M264L
modifications: mutant HPPD polypeptide
B16: SEQ ID NO:5 (protein)
chain: B1 chain with K315R
modifications: mutant HPPD polypeptide
B17: SEQ ID NO:14 (protein)
chain: B1 chain with I345M
modifications: mutant HPPD polypeptide
B18: SEQ ID NO:15 (protein)
chain: B1 chain with K315Q, I345M
modifications: mutant HPPD polypeptide
B19: SEQ ID NO:19 (protein)
chain: B1 chain with K315Q, S344Q, I345M
modifications: mutant HPPD polypeptide
B20: SEQ ID NO:24 (protein)
chain: B1 chain with K315R, D336H
modifications: mutant HPPD polypeptide
B21: SEQ ID NO:6 (protein)
chain: B1 chain with K315T
modifications: mutant HPPD polypeptide
B22: SEQ ID NO:12 (protein)
chain: B1 chain with K315R, S344Q
modifications: mutant HPPD polypeptide
B23: SEQ ID NO:16 (protein)
chain: B1 chain with K315R, I345M
modifications: mutant HPPD polypeptide
B24: SEQ ID NO:4 (protein)
chain: B1 chain with K315Q
modifications: mutant HPPD polypeptide

System: Pseudomonas fluorescens HPPD polypeptide (wild-type and mutants)
Assay: Coupled HPPD activity assay: turnover and residual turnover in crude HPPD polypeptide extracts with and without Cmpd. 1
Type: biochemical
Conditions: for Turnover: absence of Cmpd. 1; for Turnover / Residual turnover: changes in absorbance (OD) at 320 nm in the coupled assay, 30 min; for Residual turnover: presence of 100 μM Cmpd. 1; for Residual turnover [%]: 100 μM Cmpd. 1, normalised to turnover without inhibitor
Procedure: For the generation of crude HPPD polypeptide extract in micro titer plates (MTP) for the determination of residual activity in inhibition assays, cells were grown in 40 or 150 μl LB medium containing 1% Glucose (Merck, Darmstadt, Germany) and 100 μg/ml ampicillin in a standard 96 well plate (Thermo Fisher Scientific, Waltham, USA) incubated for about 18 h in a humidity incubator at 37° C. 30 μl of this starter culture were added to 600 μl LB medium containing 100 μg/ml ampicillin and 150 mM Hepes (Merck, Darmstadt, Germany) as inoculum for the expression culture in 96 well plates (2 ml deep wells; HJ Bioanalytik, Erkelenz, Germany). The plates were sealed by an aluminium foil, and cells were incubated for 5 h at 37° C. on a plate shaker at 750 rpm. The expression was induced by addition of IPTG in a final concentration of 1 mM followed by further sealed incubation for about 18 h at 30° C. on a plate shaker at 750 rpm.
Cells were harvested by centrifugation at 4° C., 2500 g for 15 min discarding the supernatant. Cell pellets were stored at −80° C. and lysed in 250 μl 1× BugBuster® (Merck, Darmstadt, Germany) in 140 mM Tris (pH 7.8), with 1:25000 diluted BNase® (Qiagen, Hilden, Germany) by incubation of the resuspended cells for 30 min at 4° C. and 1000 rpm. Lysates were clarified by centrifugation for 15 min at 4° C., 2500 g, and 150 μl supernatant were transferred in standard 96 well plate (Thermo Fisher Scientific, Waltham, USA) for subsequent testing in quadruplets.
The activity of HPPD polypeptides was determined in absence or presence of HPPD inhibitors using the coupled HPPD activity assay (FIG. 1).
For the determination of the residual activity, the apparent kinetic constant (kapp) of the determined substrate conversion was measured as kinetic changes in absorbance (OD) at 320 nm in a coupled assay, in that homogentisate (HGA) formed by HPPD from HPP is directly converted into the well absorbing molecule maleylacetoacetate (MAA) by a second enzyme homogentisate dioxygenase (HGD), applied in excess uniformly in all assays (see FIG. 1). The measurements were performed in 384 micro titer plates (Greiner Bio-One GmbH, Frickenhausen, Germany) by plate readers (Tecan infinite M1000 or M1000PRO, Tecan, Männedorf, Switzerland). The kcat/kM ratio of an enzymatic activity is proportional to the apparent kinetic constant kapp and is proportional to kcat/kM*[E] ([E]=enzyme concentration). […] As both kapp measurements in the presence and absence of inhibitor were performed by use of the identical enzyme sample, crude or purified, and thereby at the same enzyme concentration, the enzyme concentration eliminates from the calculation of residual activity and the ratio of both kapp directly indicates the change of kM due to the inhibition.
The assay solution used for determination of residual activities in raw HPPD polypeptide samples was composed by 200 mM sodium phosphate (Merck, Darmstadt, Germany, pH 7.0), 5 mM MgCl2 (Merck, Darmstadt, Germany), 20 mM ascorbate (Sigma-Aldrich, St. Louis, USA), 1 mM DTT (Sigma-Aldrich, St. Louis, USA), 0.1% Pluronic F-68 (Sigma-Aldrich, St. Louis, USA), 40 μM FeSO4 (Sigma-Aldrich, St. […] Louis, USA) and equilibrated for 20 min on ice.

Molecule | Turnover | Residual turnover | Residual turnover [%]
B1 | 0.013 | 0.012 | 
B2 | 0.124 | 0.082 | 66%
B3 | 0.221 | 0.091 | 41%
B4 | 0.166 | 0.082 | 49%
B5 | 0.259 |  | 42%
B6 | 0.214 | 0.082 | 38%
B7 | 0.272 | 0.131 | 48%
B8 | 0.25 | 0.112 | 45%
B9 | 0.109 | 0.071 | 65%
B10 | 0.168 | 0.064 | 38%
B11 | 0.018 | 0.021 | 
B12 | 0.262 | 0.153 | 58%
B13 | 0.183 | 0.085 | 46%
B14 | 0.184 | 0.075 | 41%
B15 | 0.126 | 0.074 | 59%
B16 | 0.162 | 0.071 | 44%
B17 | 0.18 | 0.072 | 40%
B18 | 0.161 | 0.062 | 39%
B19 | 0.218 | 0.087 | 40%
B20 | 0.271 | 0.147 | 54%
B21 | 0.159 | 0.052 | 33%
B22 | 0.189 | 0.076 | 40%
B23 | 0.181 | 0.083 | 46%
B24 | 0.121 | 0.06 | 50%
